According to patent US20050152899A1, “EphA2 agonistic monoclonal antibodies and methods of use thereof” (priority 2002, published 2005):

Key:
[1] = tested on: MCF-7^EphA2 cells; experiment: Colony formation in soft agar, MCF-7^EphA2 cells; assay type: cell-based
Description: (§1) Tumor cells were suspended in soft agar. Colony formation in soft agar was assayed as described in Zelinski et al. (2001, Cancer Res. 61: 2301-6). Antibodies or a control solution (PBS) was included in bottom and top agar solutions. […] Colony formation was scored microscopically using an Olympus CK-3 inverted phase-contrast microscope outfitted with a 40× objective. Clusters containing at least three cells were scored as a positive. The average number of colonies per high-powered field is shown. Ten separate high-power microscopic fields were averaged in each experiment, and the results shown are representative of at least three separate experiments.
(§2) A549 malignant lung cancer cells were incubated with either 10 μg/ml or 2.5 μg/ml of EA5 or EA2 monoclonal antibodies or a control (PBS). […] Benign MCF-7 breast epithelial tumor cells were converted to malignant cells by the overexpression of EphA2 (MCF-7^EphA2). Both tumor cell types were incubated with either EA5 monoclonal antibodies or a control (PBS). […] Results are reported as colonies per high-powered field (HPF).
(§3) Growth assays were conducted as follows. MCF-7^neo (control cells) or MCF7^EphA2 cells were seeded in 96-well plates. […] Colony formation in soft agar was performed as previously described (Zelinski et al., 2001, Cancer Res. 61: 2301-6) and scored microscopically, defining clusters of at least three cells as a positive. The data represent the average of ten separate high-power microscopic fields from each sample and representative of at least three separate experiments. Error bars represent the standard error of the mean of at least three different experiments as determined using Microsoft Excel software.
Sensitivity of MCF-7^EphA2 cells to tamoxifen was measured.
Growth MCF-7^EphA2 cells which had decreased EphA2 expression levels was assayed in soft agar.

[2] = tested on: control MCF-7 cells; experiment: Colony formation in soft agar, control MCF-7 cells; assay type: cell-based
Description: as §1, §3
Sensitivity of MCF-7^EphA2 cells to tamoxifen was measured. […]

[3] = tested on: MCF-7^EphA2 cells; experiment: Tumorigenic potential of MCF-7^EphA2 vs MCF-7^neo cells in mammary fat pad under tamoxifen; assay type: in vivo, athymic (nu/nu) mice; details: MCF-7^EphA2 vs control MCF-7^neo; tamoxifen 1 mg oral gavage 6 days per week, supplemental estrogen
Description: Six to eight week-old athymic (nu/nu) mice were purchased from Harlan Sprague Dawley (Indianapolis, Ind.). When indicated, a controlled release estradiol pellet (0.72 mg 17β-estradiol, 60-day formulation) was injected subcutaneously via a sterile 14-gauge trocar 24 hours prior to tumor implantation and pellets were replaced every 60 days for those experiments spanning >60 days in duration. 1×10^6 MCF-7^neo or MCF7^EphA2 cells were injected into the mammary fat pad under direct visualization. When indicated, tamoxifen (1 mg) was administered by oral gavage 6 days per week.

[4] = tested on: estrogen receptor; experiment: Estrogen receptor activity, ERE-TK-CAT reporter; assay type: cell-based; details: control and MCF-7^EphA2 cells, tamoxifen 10^−6 M
Description: Estrogen receptor activity was measured using ERE-TK-CAT vector (which encodes a single ERE; a generous gift from Dr. Nakshatri, Indiana University School of Medicine) in the unstimulated state, after estradiol (10^−8 M) stimulation and tamoxifen (10^−6 M) inhibition. Cells were plated in phenol red free, charcoal stripped sera for 2 days and transfected with ERE-TK-CAT (5 μg) using calcium phosphate method. The β-galactosidase expression vector RSV/β-galactosidase (2 μg, Dr. Nakshatri's gift) was cotransfected as a control. Fresh media including the appropriate selection drugs were added 24 hours after transfection. Cells were harvested after 24 hours and CAT activity was evaluated as described (Nakshatri et al., 1997, Mol. Cell. Biol. 17: 3629-39).

[5] = tested on: A549 malignant lung cancer cells; experiment: Colony formation in soft agar, A549 cells; assay type: cell-based; details: 10 μg/ml or 2.5 μg/ml, 7 days at 37° C., vs PBS
Description: Tumor cells were suspended in soft agar. Colony formation in soft agar was assayed as described in Zelinski et al. (2001, Cancer Res. 61: 2301-6). Antibodies or a control solution (PBS) was included in bottom and top agar solutions. Cells were suspended in soft agar for 7 days at 37° C. in the presence of purified antibody or control solution (PBS), administered at the time of suspension. Colony formation was scored microscopically using an Olympus CK-3 inverted phase-contrast microscope outfitted with a 40× objective. Clusters containing at least three cells were scored as a positive. The average number of colonies per high-powered field is shown. Ten separate high-power microscopic fields were averaged in each experiment, and the results shown are representative of at least three separate experiments.
as §2

[6] = biological target: T1, EphA2 (Homo sapiens, UniProt P29317); experiment: EphA2 tyrosine phosphorylation and degradation in A549 cells (immunoprecipitation / western blot); assay type: cell-based; set-up: endogenous in cells; details: A549 monolayers
Description: Western blot analyses and immunoprecipitations were performed as described previously (Zantek et al., 1999, Cell Growth Diff. 10: 629-38). Briefly, detergent extracts of cell monolayers were extracted in Tris-buffered saline containing 1% Triton X-100 (Sigma, St. Louis, Mo.). After measuring protein concentrations (BioRad, Hercules, Calif.), 1.5 mg of cell lysate was immunoprecipitated, resolved by SDS-PAGE and transferred to nitrocellulose (Protran, Schleicher and Schuell, Keene, N.H.). Antibody binding was detected by enhanced chemiluminescence (Pierce, Rockford, Ill.) and autoradiography (Kodak X-OMAT; Rochester, N.Y.).
Similar experiments were conducted with A549 cells. Monolayers of A549 cells were incubated at 37° C. in the presence of EA5 or EA2 or control (PBS) for either 10 minutes (FIGS. 2A-2B) or 5 hours (FIGS. 2C-2D). Cell lysates were then immunoprecipitated with an EphA2-specific antibody (D7), resolved by SDS-PAGE and subjected to western blot analysis with a phosphotyrosine-specific antibody (4G10, purchased from Upstate Biologicals, Inc., Lake Placid, N.Y.) (FIGS. 2A, 2C). The membranes were stripped and re-probed with the EphA2-specific antibody used in the immunoprecipitation (D7) as a loading control (FIGS. 2B, 2D). […] (FIG. 2D).

[7] = biological target: T1, EphA2; experiment: EphA2 tyrosine phosphorylation and degradation in MDA-MB-231 cells (immunoprecipitation / western blot); assay type: cell-based; set-up: endogenous in cells; host or cells: MDA-MB-231; MCF-10A; details: MDA-MB-231 monolayers
Description: EphA2 antibodies promoted tyrosine phosphorylation and degradation of EphA2 in MDA-MB-231 (FIGS. 1A-1C) cells. Monolayers of cells were incubated in the presence of EA5 (FIGS. 1A-1B, lanes 2, 3) or EA2 (FIGS. 1A-1B, lanes 4, 5) or control (FIGS. 1A-1B, lane 1) for 8 minutes at 37° C. Cell lysates were then immunoprecipitated with an EphA2-specific antibody (D7, purchased from Upstate Biologicals, Inc., Lake Placid, N.Y. and deposited with the American Type Tissue Collection on Dec. 8, 2000, and assigned ATCC number PTA 2755), resolved by SDS-PAGE and subjected to western blot analysis with a phosphotyrosine-specific antibody (4G10, purchased from Upstate Biologicals, Inc., Lake Placid, N.Y.) (FIG. 1A). The membranes were stripped and re-probed with the EphA2-specific antibody used in the immunoprecipitation (D7) as a loading control.
Western blot analyses and immunoprecipitations were performed as described previously (Zantek et al., 1999, Cell Growth Diff. 10: 629-38). Briefly, detergent extracts of cell monolayers were extracted in Tris-buffered saline containing 1% Triton X-100 (Sigma, St. Louis, Mo.). […] Antibody binding was detected by enhanced chemiluminescence (Pierce, Rockford, Ill.) and autoradiography (Kodak X-OMAT; Rochester, N.Y.). […]

[8] = biological target: T1, EphA2; experiment: Immunofluorescent staining of MDA-MB-231 and MCF-10A cells; assay type: binding; set-up: endogenous in cells; host or cells: MDA-MB-231; MCF-10A
Source text: The epitope of the EphA2 antibodies were characterized. EA5 and EA2 selectively bind to malignant cells. The anti-EphA2 monoclonal antibodies EA5 and EA2 bind malignant MDA-MB-231 breast epithelial tumor cells (FIGS. 11A-11B) more strongly than benign MCF-10A breast epithelial tumor cells (FIGS. 11C-11D) as shown by immunofluorescent staining. […] The anti-EphA2 monoclonal antibody EA5 identified malignant prostate cancer cells in formalin-fixed, paraffin-embedded archival clinical specimens (FIG. 12).
EA5 preferentially binds an EphA2 epitope exposed on cancer cells but not non-cancer cells. Non-transformed MCF-10A cells or transformed MDA-MB-231 cells were incubated with 10 μg/ml EA2 at 4° C. for 30 min. prior to fixation in a 3% formalin solution and immunolabeling with fluorophore-conjugated anti-mouse IgG.

[9] = biological target: T2, EphA2-Ephrin A1-Fc complex (Homo sapiens, UniProt P29317); experiment: Binding to EphA2-Ephrin A1-Fc complex on microtiter plate; details: EphA2-Fc bound to immobilized Ephrin A1-Fc
T2 construct: consisting of the extracellular domain of EphA2 linked to human IgG1 constant region
Description: (§4) A microtiter plate was coated with […] Ephrin A1-Fc overnight at 4° C. A fusion protein consisting of the extracellular domain of EphA2 linked to human IgG1 constant region (EphA2-Fc) was incubated with and bound to the immobilized Ephrin A1-Fc. Biotinylated Ephrin A1-Fc or EA5 was incubated with the EphA2-Ephrin A1-Fc complex and amount of binding was measured.

[10] = biological target: T2, EphA2-Ephrin A1-Fc complex; experiment: Competition for labeled EA5 on EphA2-Ephrin A1-Fc complex; assay type: binding; details: biotinylated EA5 10 μg/ml, 30 min.
Description: as §4
The EphA2-Ephrin A1-Fc complex was prepared as described above. Biotinylated EA5 (10 μg/ml) was then incubated with the complex for 30 min. Unlabeled competitor was incubated with EphA2-Ephrin A1-Fc-EA5 complex in the indicated amount. Unlabeled EA5 could displace the labeled EA5 at concentrations of 100 ng/ml or greater.

T1 sequence (P29317 24-976): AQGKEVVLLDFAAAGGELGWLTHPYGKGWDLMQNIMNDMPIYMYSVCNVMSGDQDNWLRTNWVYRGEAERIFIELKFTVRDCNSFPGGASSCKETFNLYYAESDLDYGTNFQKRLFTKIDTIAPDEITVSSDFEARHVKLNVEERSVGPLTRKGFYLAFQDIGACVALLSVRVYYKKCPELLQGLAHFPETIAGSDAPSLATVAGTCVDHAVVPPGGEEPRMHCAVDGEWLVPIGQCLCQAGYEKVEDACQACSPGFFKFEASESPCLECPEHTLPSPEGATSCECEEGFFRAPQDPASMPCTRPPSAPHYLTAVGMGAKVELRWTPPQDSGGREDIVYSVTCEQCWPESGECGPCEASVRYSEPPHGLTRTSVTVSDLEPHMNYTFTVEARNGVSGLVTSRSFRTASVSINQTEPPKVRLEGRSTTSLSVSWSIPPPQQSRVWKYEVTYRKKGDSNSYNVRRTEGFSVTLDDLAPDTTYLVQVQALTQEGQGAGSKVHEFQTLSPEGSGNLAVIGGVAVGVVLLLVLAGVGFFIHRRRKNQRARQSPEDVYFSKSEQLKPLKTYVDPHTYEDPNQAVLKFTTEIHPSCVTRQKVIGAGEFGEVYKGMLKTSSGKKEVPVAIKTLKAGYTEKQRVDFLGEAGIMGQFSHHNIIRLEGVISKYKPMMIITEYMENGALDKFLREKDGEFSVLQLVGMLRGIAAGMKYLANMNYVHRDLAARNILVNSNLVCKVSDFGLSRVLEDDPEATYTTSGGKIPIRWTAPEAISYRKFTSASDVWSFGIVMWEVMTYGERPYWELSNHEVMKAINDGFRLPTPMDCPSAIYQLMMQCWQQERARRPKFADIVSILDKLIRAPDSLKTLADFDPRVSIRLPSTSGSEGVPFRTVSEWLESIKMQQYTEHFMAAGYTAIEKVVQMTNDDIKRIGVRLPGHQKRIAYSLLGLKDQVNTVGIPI
T2 sequence (P29317 24-537 limits assumed, one chain of several): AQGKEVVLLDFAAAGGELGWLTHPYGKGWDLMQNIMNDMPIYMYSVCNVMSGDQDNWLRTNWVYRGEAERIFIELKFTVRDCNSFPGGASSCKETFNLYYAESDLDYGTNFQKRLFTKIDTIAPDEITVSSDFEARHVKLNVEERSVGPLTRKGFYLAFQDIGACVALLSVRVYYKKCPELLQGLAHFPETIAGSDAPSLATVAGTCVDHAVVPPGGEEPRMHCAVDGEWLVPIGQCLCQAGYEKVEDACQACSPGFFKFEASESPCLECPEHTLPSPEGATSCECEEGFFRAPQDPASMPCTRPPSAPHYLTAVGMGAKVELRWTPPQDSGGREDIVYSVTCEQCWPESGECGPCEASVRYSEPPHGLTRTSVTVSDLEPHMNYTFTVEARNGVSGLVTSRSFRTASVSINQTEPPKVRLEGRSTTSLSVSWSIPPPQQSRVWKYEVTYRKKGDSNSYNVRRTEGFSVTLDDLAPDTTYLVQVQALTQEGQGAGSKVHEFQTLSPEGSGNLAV

Molecule: C[C@]12CC[C@@H]3c4ccc(O)cc4CC[C@H]3[C@@H]1CC[C@@H]2O [estradiol, 17β-estradiol, reference compound]
- Effect of excess estradiol on tamoxifen inhibition of soft agar colonization ([1]; 1 μM tamoxifen and 1 μM 17β-estradiol, MCF-7 or MCF-7^EphA2 cells (FIG. 8A)): overcame the inhibitory effects of tamoxifen

Molecule: CC/C(=C(\c1ccccc1)c1ccc(OCCN(C)C)cc1)c1ccccc1 [tamoxifen]
- inhibition at 1 µM ([1]; 336 h, MCF-7^EphA2 cells, 1 μM tamoxifen, 14 days (FIG. 8A), read-out: Inhibition of soft agar colonization): 25%
- Decrease in soft agar colonization ([1]; MCF-7^EphA2 cells, tamoxifen 1 μM and/or EA5 10 μg/ml (FIG. 10C)): 25%
- inhibition at 1 µM ([2]; Homo sapiens, MCF7, matched control MCF-7 cells, tamoxifen 1 μM (FIG. 10C), read-out: Inhibition of soft agar colonization): 75%
- Reduction of soft agar colonization ([2]; control MCF-7 cells, 1 μM tamoxifen, 14 days (FIG. 8A)): at least 60%
- Sensitivity of tumorigenic potential to tamoxifen [3]: less sensitive to tamoxifen
- Estrogen receptor activity (CAT) [4]: remained sensitive to tamoxifen

B1: EA2: EphA2 agonistic monoclonal antibody; hybridoma strain EA2.31, ATCC PTA-4380; VL SEQ ID NO:1, VH SEQ ID NO:5 (antibody, listed as Homo Sapiens, V domains shown)
VH: DVKLVESGGGLVKPGGSLKLSCAASGFTFSSYTMSWVRQTPEKRLEWVATISSGGTYTYYPDSVKGRFTISRDNAKNTLYLQMSSLKSEDTAMYYCTREAIFTYWGQGTLVTVSA
VL: DIKMTQSPSSMYASLGERVTITCKASQDINNYLSWFQQKPGKSPKTLIYRANRLVDGVPSRFSGSGSGQDYSLTISSLEYEDMGIYYCLKYDEFPYTFGGGTKLEIK
- Cell growth in soft agar (colonies per high-powered field) [5]: inhibited cell growth in soft agar
- EphA2 phosphorylation ([6]; 10 minutes at 37° C.): increase in phosphorylation
- EphA2 protein degradation ([6]; 5 hours at 37° C.): degradation of the EphA2 protein
- EphA2 protein levels ([7]; 30 μg/ml, 24 hours at 37° C.): decrease
- Levels of EphA2 phosphorylation ([7]; 8 minutes at 37° C., phosphotyrosine western blot): increase
- Binding to malignant MDA-MB-231 vs benign MCF-10A cells [8]: more strongly

B2: Ephrin A1-Fc: Fc form of the EphA2 ligand Ephrin A1, used biotinylated or unlabeled (protein)
chain: DRHTVFWNSSNPKFRNEDYTIHVQLNDYVDIICPHYEDHSVADAAMEQYILYLVEHEEYQLCQPQSKDQVRWQCNRPSAKHGPEKLSEKFQRFTPFTLGKEFKEGHSYYYISKPIHQHEDRCLRLKVTVSGKITHSPQAHDNPQEKRLAADDPEVRVLHSIGHS
modifications: left off: a dimerising Fc or GST
notes: Fc form of the EphA2 ligand Ephrin A1, used biotinylated or unlabeled
- Amount of biotinylated protein bound to EphA2-Ephrin A1-Fc complex [9]: Very little additional Ephrin A1-Fc bound
- Displacement of labeled EA5 by unlabeled competitor [10]: did not significantly displace labeled EA5
